Assay results as given in patent publication US20120315284A1 (KOREA RESEARCH INSTITUTE OF BIOSCIENCE AND BIOTECH, published 2012).

T1: MKK7 in cell lysate (immunoprecipitated with MKK7 antibody; the cells' own MKK7) (human, UniProt O14733 2-419, limits assumed)
T1 sequence: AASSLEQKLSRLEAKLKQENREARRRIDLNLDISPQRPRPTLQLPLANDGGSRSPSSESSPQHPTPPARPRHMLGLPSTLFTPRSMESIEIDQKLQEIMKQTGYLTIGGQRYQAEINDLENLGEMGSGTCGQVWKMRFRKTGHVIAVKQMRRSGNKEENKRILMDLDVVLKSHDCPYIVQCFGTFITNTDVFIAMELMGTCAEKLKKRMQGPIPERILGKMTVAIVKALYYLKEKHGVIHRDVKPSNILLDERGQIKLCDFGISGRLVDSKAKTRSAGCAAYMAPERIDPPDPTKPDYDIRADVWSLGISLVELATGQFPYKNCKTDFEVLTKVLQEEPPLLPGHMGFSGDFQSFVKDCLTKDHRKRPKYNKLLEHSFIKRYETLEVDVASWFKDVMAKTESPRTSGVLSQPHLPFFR

T2: MKK7 fragment D1 (pGST vector, HEK293T) (human, UniProt O14733 85-419, limits assumed)
T2 construct: also called MKK7-D1; not shown: GST tag of the pGST expression vector
T2 sequence: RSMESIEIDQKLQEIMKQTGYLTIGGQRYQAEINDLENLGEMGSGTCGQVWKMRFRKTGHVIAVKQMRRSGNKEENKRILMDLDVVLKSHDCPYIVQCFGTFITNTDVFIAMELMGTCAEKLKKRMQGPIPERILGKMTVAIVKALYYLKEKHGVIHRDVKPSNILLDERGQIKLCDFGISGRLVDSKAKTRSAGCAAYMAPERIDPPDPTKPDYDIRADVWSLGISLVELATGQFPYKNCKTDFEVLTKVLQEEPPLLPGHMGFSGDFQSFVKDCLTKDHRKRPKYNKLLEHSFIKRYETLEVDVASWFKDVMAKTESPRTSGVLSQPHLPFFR

T3: MKK7 (full length MKK7 expressed from the pGST vector in HEK293T cells) (human, UniProt O14733 1-419)
T3 construct: also called full length MKK protein; not shown: GST tag of the pGST (pEBG) vector
T3 sequence: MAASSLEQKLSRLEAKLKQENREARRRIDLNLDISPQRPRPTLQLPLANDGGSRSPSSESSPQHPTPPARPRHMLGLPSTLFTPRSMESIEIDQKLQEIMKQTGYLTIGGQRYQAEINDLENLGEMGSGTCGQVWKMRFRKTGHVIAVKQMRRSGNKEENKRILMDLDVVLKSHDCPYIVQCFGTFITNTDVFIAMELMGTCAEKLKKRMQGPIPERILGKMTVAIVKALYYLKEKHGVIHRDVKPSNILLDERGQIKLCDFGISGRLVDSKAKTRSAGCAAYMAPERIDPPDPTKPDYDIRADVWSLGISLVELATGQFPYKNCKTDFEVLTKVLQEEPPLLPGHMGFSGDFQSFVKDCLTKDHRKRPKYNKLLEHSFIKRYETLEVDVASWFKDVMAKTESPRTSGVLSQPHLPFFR

B1: TIP41 in cell lysate (immunoprecipitated with TIP41 antibody; the cells' own TIP41) (other)
chain: MMIHGFQSSHRDFCFGPWKLTASKTHIMKSADVEKLADELHMPSLPEMMFGDNVLRIQHGSGFGIEFNATDALRCVNNYQGMLKVACAEEWQESRTEGEHSKEVIKPYDWTYTTDYKGTLLGESLKLKVVPTTDHIDTEKLKAREQIKFFEEVLLFEDELHDHGVSSLSVKIRVMPSSFFLLLRFFLRIDGVLIRMNDTRLYHEADKTYMLREYTSRESKISSLMHVPPSLFTEPNEISQYLPIKEAVCEKLIFPERIDPNPADSQKSTQVE
notes: also called TIPP41
B2: TIP41 (full length TIP41 protein expressed from the pHA vector in HEK293T cells) (other)
chain: B1 chain
notes: Cloned from liver cancer cell RNA into pHA; also called TIPRL; TOR Signaling Pathway Regulator-Like; not shown: HA tag of the pHA vector (pcDNA3.1 with HA tag)
B3: TIP41 fragment D2 (pHA vector, HEK293T) (other)
chain: MMIHGFQSSHRDFCFGPWKLTASKTHIMKSADVEKLADELHMPSLPEMMFGDNVLRIQHGSGFGIEFNATDALRCVNNYQGMLKVACAEEWQESRTEGEHSKEVIKPYDWTYTTDYKGTLLGESLKLKVVPTTDHIDTEKLKAREQIKFFEEVLLFEDELHDHGVSSLSVKIRVMPSSFFLLLRFFLRIDGVLIRMNDTRLYHEADKTYMLREYTSRESKISSLMHVPPS
notes: also called TIP41-D2; not shown: HA tag of the pHA vector
B4: TIP41 fragment D5 (pHA vector, HEK293T) (other)
chain: MMIHGFQSSHRDFCFGPWKLTASKTHIMKSADVEKLADELHMPSLPEMMFGDNVLRIQHGSGFGIEFNATDALRCVNNYQGMLKVACAEEWQESRTEGEH
notes: also called TIP41-D5; not shown: HA tag of the pHA vector
B5: TIP41 fragment D1 (pHA vector, HEK293T) (other)
chain: MMIHGFQSSHRDFCFGPWKLTASKTHIMKSADVEKLADELHMPSLPEMMFGDNVLRIQHGSGFGIEFNATDALRCVNNYQGMLKVACAEEWQESRTEGEHSKEVIKPYDWTYTTDYKGTLLGESLKLKVVPTTDHIDTEKLKAREQIKFFEEVLLFEDELHDHGVSSL
notes: also called TIP41-D1; not shown: HA tag of the pHA vector
B6: MKK7 fragment D5 (pGST vector, HEK293T) (other)
chain: AGCAAYMAPERIDPPDPTKPDYDIRADVWSLGISLVELATGQFPYKNCKTDFEVLTKVLQEEPPLLPGHMGFSGDFQSFVKDCLTKDHRKRPKYNKLLEHSFIKRYETLEVDVASWFKDVMAKTESPRTSGVLSQPHLPFFR
notes: also called MKK7-D5; not shown: GST tag of the pGST expression vector
B7: TIP41 fragment D4 (pHA vector, HEK293T) (other)
chain: MLKVACAEEWQESRTEGEHSKEVIKPYDWTYTTDYKGTLLGESLKLKVVPTTDHIDTEKLKAREQIKFFEEVLLFEDELHDHGVSSL
notes: also called TIP41-D4; not shown: HA tag of the pHA vector

Legend:
[1] = target: T1, MKK7 in cell lysate (immunoprecipitated …); assay: immunoprecipitation (legend of FIG. 11B)
Procedure: In order to identify interaction between TIP41 and MKK7, each antibody was used to perform immunoprecipitation, and binding between TIP41 and MKK7 was identified with Western Blotting. Immunoprecipitation is done by adding about 2 μg antibody of protein to be precipitated into 1 mg cell lysate and reacted for about 2 hours in about 4° C., and add about 30 μl Protein G sepharose bead into each and react for about 12 hours in about 4° C. Afterwards, about 1 ml PBST[0.1% Tween20 included PBS] buffer was added for washing, and the procedure was repeated for about 4 times. Then 100 μl 1× sample buffer (for Western Blotting) was added into the washed bead, and then it was boiled for about 5 minutes in about 95° C. heating block, and was cooled in ice for about 2 minutes. Afterwards, Western Blotting was performed using MKK7 and TIP41 antibody.

[2] = target: T2, MKK7 fragment D1 (pGST vector, HEK293T); assay: GST pull-down from HEK293T lysate, Western blot
[3] = target: T3, MKK7 (full length MKK7 expressed from …); assay: GST pull-down from HEK293T lysate, Western blot
[4] = target: B2; assay: GST pull-down from HEK293T lysate, Western blot

| Binder | binding result [3] | also measured |
| --- | --- | --- |
| B1 | – | binding result [1]: binds |
| B2 | – | binding result [2]: no binding |
| B3 | no binding | – |
| B4 | no binding | – |
| B5 | no binding | – |
| B6 | – | binding result [4]: no binding |
| B7 | no binding | – |
